# Reference: patent publication US20150344540A1, “NOVEL GLP-1 RECEPTOR AGONISTS WITH CHOLESTEROL EFFLUX ACTIVITY” (NOVO NORDISK A/S, priority 2012, published 2015)
# Where no end group is shown, it is not given here. [ ]: non-standard residue; d: D form. Aib = CC(C)(N)C(=O)O
# B1: [Aib8,Glu23,Val25,Lys30,Glu34,Lys35,Aib36,Lys37]-GLP-1-(7-37)-peptidyl-Glu-Phe-Leu amide (peptide)
# peptide: H[Aib]EGTFTSDVSSYLEGEAVKEFIKWLVEK[Aib]KEFL-NH2
# modifications: N-terminus assumed
# SMILES: CC[C@H](C)[C@H](NC(=O)[C@H](Cc1ccccc1)NC(=O)[C@H](CCC(=O)O)NC(=O)[C@H](CCCCN)NC(=O)[C@@H](NC(=O)[C@H](C)NC(=O)[C@H](CCC(=O)O)NC(=O)CNC(=O)[C@H](CCC(=O)O)NC(=O)[C@H](CC(C)C)NC(=O)[C@H](Cc1ccc(O)cc1)NC(=O)[C@H](CO)NC(=O)[C@H](CO)NC(=O)[C@@H](NC(=O)[C@H](CC(=O)O)NC(=O)[C@H](CO)NC(=O)[C@@H](NC(=O)[C@H](Cc1ccccc1)NC(=O)[C@@H](NC(=O)CNC(=O)[C@H](CCC(=O)O)NC(=O)C(C)(C)NC(=O)[C@@H](N)Cc1c[nH]cn1)[C@@H](C)O)[C@@H](C)O)C(C)C)C(C)C)C(=O)N[C@@H](CCCCN)C(=O)N[C@@H](Cc1c[nH]c2ccccc12)C(=O)N[C@@H](CC(C)C)C(=O)N[C@H](C(=O)N[C@@H](CCC(=O)O)C(=O)N[C@@H](CCCCN)C(=O)NC(C)(C)C(=O)N[C@@H](CCCCN)C(=O)N[C@@H](CCC(=O)O)C(=O)N[C@@H](Cc1ccccc1)C(=O)N[C@@H](CC(C)C)C(N)=O)C(C)C
# B2: [Aib8,Glu23,Val25,Lys30,Glu34,Lys35,Leu36,Lys37]-GLP-1-(7-37)-peptidyl-Glu-Phe-Leu amide (peptide)
# peptide: H[Aib]EGTFTSDVSSYLEGEAVKEFIKWLVEKLKEFL-NH2
# modifications: N-terminus assumed
# SMILES: CC[C@H](C)[C@H](NC(=O)[C@H](Cc1ccccc1)NC(=O)[C@H](CCC(=O)O)NC(=O)[C@H](CCCCN)NC(=O)[C@@H](NC(=O)[C@H](C)NC(=O)[C@H](CCC(=O)O)NC(=O)CNC(=O)[C@H](CCC(=O)O)NC(=O)[C@H](CC(C)C)NC(=O)[C@H](Cc1ccc(O)cc1)NC(=O)[C@H](CO)NC(=O)[C@H](CO)NC(=O)[C@@H](NC(=O)[C@H](CC(=O)O)NC(=O)[C@H](CO)NC(=O)[C@@H](NC(=O)[C@H](Cc1ccccc1)NC(=O)[C@@H](NC(=O)CNC(=O)[C@H](CCC(=O)O)NC(=O)C(C)(C)NC(=O)[C@@H](N)Cc1c[nH]cn1)[C@@H](C)O)[C@@H](C)O)C(C)C)C(C)C)C(=O)N[C@@H](CCCCN)C(=O)N[C@@H](Cc1c[nH]c2ccccc12)C(=O)N[C@@H](CC(C)C)C(=O)N[C@H](C(=O)N[C@@H](CCC(=O)O)C(=O)N[C@@H](CCCCN)C(=O)N[C@@H](CC(C)C)C(=O)N[C@@H](CCCCN)C(=O)N[C@@H](CCC(=O)O)C(=O)N[C@@H](Cc1ccccc1)C(=O)N[C@@H](CC(C)C)C(N)=O)C(C)C
# B3: [Aib8,Glu23,Val25,Val29,Glu34,Lys35,Aib36,Lys37]-GLP-1-(7-37)-peptidyl-Glu-Phe-Leu amide (peptide)
# peptide: H[Aib]EGTFTSDVSSYLEGEAVKEFVAWLVEK[Aib]KEFL-NH2
# modifications: N-terminus assumed
# SMILES: CC(C)C[C@H](NC(=O)[C@H](Cc1ccccc1)NC(=O)[C@H](CCC(=O)O)NC(=O)[C@H](CCCCN)NC(=O)C(C)(C)NC(=O)[C@H](CCCCN)NC(=O)[C@H](CCC(=O)O)NC(=O)[C@@H](NC(=O)[C@H](CC(C)C)NC(=O)[C@H](Cc1c[nH]c2ccccc12)NC(=O)[C@H](C)NC(=O)[C@@H](NC(=O)[C@H](Cc1ccccc1)NC(=O)[C@H](CCC(=O)O)NC(=O)[C@H](CCCCN)NC(=O)[C@@H](NC(=O)[C@H](C)NC(=O)[C@H](CCC(=O)O)NC(=O)CNC(=O)[C@H](CCC(=O)O)NC(=O)[C@H](CC(C)C)NC(=O)[C@H](Cc1ccc(O)cc1)NC(=O)[C@H](CO)NC(=O)[C@H](CO)NC(=O)[C@@H](NC(=O)[C@H](CC(=O)O)NC(=O)[C@H](CO)NC(=O)[C@@H](NC(=O)[C@H](Cc1ccccc1)NC(=O)[C@@H](NC(=O)CNC(=O)[C@H](CCC(=O)O)NC(=O)C(C)(C)NC(=O)[C@@H](N)Cc1c[nH]cn1)[C@@H](C)O)[C@@H](C)O)C(C)C)C(C)C)C(C)C)C(C)C)C(N)=O
# B4: [Aib8,Glu23,Val25,Gln30,Glu34,Lys35,Aib36,Lys37]-GLP-1-(7-37)-peptidyl-Glu-Phe-Leu amide (peptide)
# peptide: H[Aib]EGTFTSDVSSYLEGEAVKEFIQWLVEK[Aib]KEFL-NH2
# modifications: N-terminus assumed
# SMILES: CC[C@H](C)[C@H](NC(=O)[C@H](Cc1ccccc1)NC(=O)[C@H](CCC(=O)O)NC(=O)[C@H](CCCCN)NC(=O)[C@@H](NC(=O)[C@H](C)NC(=O)[C@H](CCC(=O)O)NC(=O)CNC(=O)[C@H](CCC(=O)O)NC(=O)[C@H](CC(C)C)NC(=O)[C@H](Cc1ccc(O)cc1)NC(=O)[C@H](CO)NC(=O)[C@H](CO)NC(=O)[C@@H](NC(=O)[C@H](CC(=O)O)NC(=O)[C@H](CO)NC(=O)[C@@H](NC(=O)[C@H](Cc1ccccc1)NC(=O)[C@@H](NC(=O)CNC(=O)[C@H](CCC(=O)O)NC(=O)C(C)(C)NC(=O)[C@@H](N)Cc1c[nH]cn1)[C@@H](C)O)[C@@H](C)O)C(C)C)C(C)C)C(=O)N[C@@H](CCC(N)=O)C(=O)N[C@@H](Cc1c[nH]c2ccccc12)C(=O)N[C@@H](CC(C)C)C(=O)N[C@H](C(=O)N[C@@H](CCC(=O)O)C(=O)N[C@@H](CCCCN)C(=O)NC(C)(C)C(=O)N[C@@H](CCCCN)C(=O)N[C@@H](CCC(=O)O)C(=O)N[C@@H](Cc1ccccc1)C(=O)N[C@@H](CC(C)C)C(N)=O)C(C)C
# B5: [Aib8,Glu23,Val25,Leu33,Glu34,Lys35,Aib36,Lys37]-GLP-1-(7-37)-peptidyl-Glu-Phe-Leu amide (peptide)
# peptide: H[Aib]EGTFTSDVSSYLEGEAVKEFIAWLLEK[Aib]KEFL-NH2
# modifications: N-terminus assumed
# SMILES: CC[C@H](C)[C@H](NC(=O)[C@H](Cc1ccccc1)NC(=O)[C@H](CCC(=O)O)NC(=O)[C@H](CCCCN)NC(=O)[C@@H](NC(=O)[C@H](C)NC(=O)[C@H](CCC(=O)O)NC(=O)CNC(=O)[C@H](CCC(=O)O)NC(=O)[C@H](CC(C)C)NC(=O)[C@H](Cc1ccc(O)cc1)NC(=O)[C@H](CO)NC(=O)[C@H](CO)NC(=O)[C@@H](NC(=O)[C@H](CC(=O)O)NC(=O)[C@H](CO)NC(=O)[C@@H](NC(=O)[C@H](Cc1ccccc1)NC(=O)[C@@H](NC(=O)CNC(=O)[C@H](CCC(=O)O)NC(=O)C(C)(C)NC(=O)[C@@H](N)Cc1c[nH]cn1)[C@@H](C)O)[C@@H](C)O)C(C)C)C(C)C)C(=O)N[C@@H](C)C(=O)N[C@@H](Cc1c[nH]c2ccccc12)C(=O)N[C@@H](CC(C)C)C(=O)N[C@@H](CC(C)C)C(=O)N[C@@H](CCC(=O)O)C(=O)N[C@@H](CCCCN)C(=O)NC(C)(C)C(=O)N[C@@H](CCCCN)C(=O)N[C@@H](CCC(=O)O)C(=O)N[C@@H](Cc1ccccc1)C(=O)N[C@@H](CC(C)C)C(N)=O
# B6: [Aib8,Glu23,Val25,Arg26,Val29,Gln30,Leu33,Glu34,Lys35,Aib36,Lys37]-GLP-1-(7-37)-peptidyl-Glu-Phe-Leu amide (peptide)
# peptide: H[Aib]EGTFTSDVSSYLEGEAVREFVQWLLEK[Aib]KEFL-NH2
# modifications: N-terminus assumed
# SMILES: CC(C)C[C@H](NC(=O)[C@H](Cc1ccccc1)NC(=O)[C@H](CCC(=O)O)NC(=O)[C@H](CCCCN)NC(=O)C(C)(C)NC(=O)[C@H](CCCCN)NC(=O)[C@H](CCC(=O)O)NC(=O)[C@H](CC(C)C)NC(=O)[C@H](CC(C)C)NC(=O)[C@H](Cc1c[nH]c2ccccc12)NC(=O)[C@H](CCC(N)=O)NC(=O)[C@@H](NC(=O)[C@H](Cc1ccccc1)NC(=O)[C@H](CCC(=O)O)NC(=O)[C@H](CCCNC(=N)N)NC(=O)[C@@H](NC(=O)[C@H](C)NC(=O)[C@H](CCC(=O)O)NC(=O)CNC(=O)[C@H](CCC(=O)O)NC(=O)[C@H](CC(C)C)NC(=O)[C@H](Cc1ccc(O)cc1)NC(=O)[C@H](CO)NC(=O)[C@H](CO)NC(=O)[C@@H](NC(=O)[C@H](CC(=O)O)NC(=O)[C@H](CO)NC(=O)[C@@H](NC(=O)[C@H](Cc1ccccc1)NC(=O)[C@@H](NC(=O)CNC(=O)[C@H](CCC(=O)O)NC(=O)C(C)(C)NC(=O)[C@@H](N)Cc1c[nH]cn1)[C@@H](C)O)[C@@H](C)O)C(C)C)C(C)C)C(C)C)C(N)=O
# B7: [Aib8,Glu23,Val25,Glu34,Lys35,Val36,Lys37]-GLP-1-(7-37)-peptidyl-Glu-Phe-Leu amide (peptide)
# peptide: H[Aib]EGTFTSDVSSYLEGEAVKEFIAWLVEKVKEFL-NH2
# modifications: N-terminus assumed
# SMILES: CC[C@H](C)[C@H](NC(=O)[C@H](Cc1ccccc1)NC(=O)[C@H](CCC(=O)O)NC(=O)[C@H](CCCCN)NC(=O)[C@@H](NC(=O)[C@H](C)NC(=O)[C@H](CCC(=O)O)NC(=O)CNC(=O)[C@H](CCC(=O)O)NC(=O)[C@H](CC(C)C)NC(=O)[C@H](Cc1ccc(O)cc1)NC(=O)[C@H](CO)NC(=O)[C@H](CO)NC(=O)[C@@H](NC(=O)[C@H](CC(=O)O)NC(=O)[C@H](CO)NC(=O)[C@@H](NC(=O)[C@H](Cc1ccccc1)NC(=O)[C@@H](NC(=O)CNC(=O)[C@H](CCC(=O)O)NC(=O)C(C)(C)NC(=O)[C@@H](N)Cc1c[nH]cn1)[C@@H](C)O)[C@@H](C)O)C(C)C)C(C)C)C(=O)N[C@@H](C)C(=O)N[C@@H](Cc1c[nH]c2ccccc12)C(=O)N[C@@H](CC(C)C)C(=O)N[C@H](C(=O)N[C@@H](CCC(=O)O)C(=O)N[C@@H](CCCCN)C(=O)N[C@H](C(=O)N[C@@H](CCCCN)C(=O)N[C@@H](CCC(=O)O)C(=O)N[C@@H](Cc1ccccc1)C(=O)N[C@@H](CC(C)C)C(N)=O)C(C)C)C(C)C
# B8: [Aib8,Glu23,Val25,Arg26,Glu34,Lys35,Aib36,Lys37]-GLP-1-(7-37)-peptidyl-Glu-Phe-Leu amide (peptide)
# peptide: H[Aib]EGTFTSDVSSYLEGEAVREFIAWLVEK[Aib]KEFL-NH2
# modifications: N-terminus assumed
# SMILES: CC[C@H](C)[C@H](NC(=O)[C@H](Cc1ccccc1)NC(=O)[C@H](CCC(=O)O)NC(=O)[C@H](CCCNC(=N)N)NC(=O)[C@@H](NC(=O)[C@H](C)NC(=O)[C@H](CCC(=O)O)NC(=O)CNC(=O)[C@H](CCC(=O)O)NC(=O)[C@H](CC(C)C)NC(=O)[C@H](Cc1ccc(O)cc1)NC(=O)[C@H](CO)NC(=O)[C@H](CO)NC(=O)[C@@H](NC(=O)[C@H](CC(=O)O)NC(=O)[C@H](CO)NC(=O)[C@@H](NC(=O)[C@H](Cc1ccccc1)NC(=O)[C@@H](NC(=O)CNC(=O)[C@H](CCC(=O)O)NC(=O)C(C)(C)NC(=O)[C@@H](N)Cc1c[nH]cn1)[C@@H](C)O)[C@@H](C)O)C(C)C)C(C)C)C(=O)N[C@@H](C)C(=O)N[C@@H](Cc1c[nH]c2ccccc12)C(=O)N[C@@H](CC(C)C)C(=O)N[C@H](C(=O)N[C@@H](CCC(=O)O)C(=O)N[C@@H](CCCCN)C(=O)NC(C)(C)C(=O)N[C@@H](CCCCN)C(=O)N[C@@H](CCC(=O)O)C(=O)N[C@@H](Cc1ccccc1)C(=O)N[C@@H](CC(C)C)C(N)=O)C(C)C
# Molecular target: human GLP-1 receptor (human, UniProt P43220)
# Test: cell-based or functional assay
Binder,"CRE luciferase EC50, 0% HSA","CRE luciferase EC50, 1% HSA"
B1,103 pM,43 pM
B2,465 pM,275 pM
B3,111 pM,36 pM
B4,83 pM,42 pM
B5,203 pM,76 pM
B6,94 pM,29 pM
B7,474 pM,381 pM
B8,76 pM,28 pM
